# Laboratory results published in patent US20230203199A1 (published 2023).
# T1: hCD20 on transfected Expi293 cells (human, UniProt P11836 1-297)
# T1 construct: whole, on cells
# T1 sequence (looked up): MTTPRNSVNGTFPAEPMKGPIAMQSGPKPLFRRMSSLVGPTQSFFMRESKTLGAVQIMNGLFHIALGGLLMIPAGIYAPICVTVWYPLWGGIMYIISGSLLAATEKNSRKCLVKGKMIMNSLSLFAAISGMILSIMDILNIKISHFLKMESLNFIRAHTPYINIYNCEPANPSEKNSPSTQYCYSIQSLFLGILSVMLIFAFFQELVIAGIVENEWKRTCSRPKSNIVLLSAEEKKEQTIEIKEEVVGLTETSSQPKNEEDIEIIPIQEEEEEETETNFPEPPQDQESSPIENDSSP
# B1: MX846 (bispecific antibody)
# chain 1: not shown
# chain 2: QAVVTQEPSLTVSPGGTVTLTCGSSTGAVTTSNYANWVQEKPGQAFRGLIGGTNKRAPGTPARFSGSLLGGKAALTLSGAQPEDEAEYYCALWYSNLWVFGGGTKLTVLGGSGGDIVMTQTPLSLPVTPGEPASISCRSSKSLLHSNGITYLYWYLQKPGQSPQLLIYQMSNLVSGVPDRFSGSGSGTDFTLKISRVEAEDVGVYYCAQNLELPYTFGGGTKVEIKGSGGSAGSGSGGGGSASGSGQVQLVQSGAEVKKPGSSVKVSCKASGYAFSYSWINWVRQAPGQGLEWMGRIFPGDGDTDYNGKFKGRVTITADKSTSTAYMELSSLRSEDTAVYYCARNVFDGYWLVYWGQGTLVTVSSGGSGGEVQLLESGGGLVQPGGSLRLSCAASGFTFSTYAMNWVRQAPGKGLEWVSRIRSKYNNYATYYADSVKGRFTISRDDSKNTLYLQMNSLRAEDTAVYYCVRHGNFGNSYVSWFAYWGQGTLVTVSSASGGSGDKTHTCPPCPAPEAAGGPSVFLFPPKPKDTLMISRTPEVTCVVVDVSHEDPEVKFNWYVDGVEVHNAKTKPREEQYNSTYRVVSVLTVLHQDWLNGKEYKCKVSNKALAAPIEKTISKAKGQPREPQVCTLPPSRDELTKNQVSLSCAVKGFYPSDIAVEWESNGQPENNYKTTPPVLDSDGSFFLVSKLTVDKSRWQQGNVFSCSVMHEALHNHYTQKSLSLSPG
# Target: T1, hCD20 on transfected Expi293 cells
# Assay: flow cytometry on Expi293 cells transfected with hCD20, anti-human Fc PE detection
binder,measurement,value
B1,binding result,binds
